Results reported in patent US20040092720A1 (US Dept. of Health and Human Services, published 2004).

B1: Peptide A34 (peptide)
peptide: AAGSHPSRWAGMGRRLLLRSA
notes: alanine-scan variant of the domain I 21-mer
B2: Peptide A41 (peptide)
peptide: AAGSHPSRWAGMGARLLLRSV
notes: as for B1
B3: Peptide A40 (peptide)
peptide: AAGSHPSRWAGMGRALLLRSV
notes: as for B1
B4: Peptide A35 (peptide)
peptide: AAGSHPSRWAGMGRRLLLRAV
notes: as for B1
B5: Peptide A39 (peptide)
peptide: AAGSHPSRWAGMGRRALLRSV
notes: as for B1
B6: Peptide A38 (peptide)
peptide: AAGSHPSRWAGMGRRLALRSV
notes: as for B1
B7: Peptide A36 (peptide)
peptide: AAGSHPSRWAGMGRRLLLASV
notes: as for B1
B8: Peptide A37 (peptide)
peptide: AAGSHPSRWAGMGRRLLARSV
notes: as for B1

Target: T1, recombinant human IL-6 (human, UniProt P05231 30-212, labeled with radioactive iodine)
T1 construct: Labeled probe in solution, added to wells that carry the synthetic peptides; also called IL-6 ligand; Interleukin-6
Test: radioiodinated IL-6 on peptide array
Protocol: Synthetic peptide arrays were constructed in 96-well microtiter plates in accordance with the method set forth in WO 91/02714 (Saxinger), and used to test the binding of recombinant human IL-6 that had been labeled with radioactive iodine (radiolabeling by standard methods). After incubating the radiolabeled IL-6 ligand in a well with each synthetic peptide, a washing step was performed to remove unbound label, and the relative level of radioactivity remaining in each well of the plate was evaluated to determine the relative affinity of each peptide for IL-6 ligand.

Binder | Counts/minute bound [counts/minute]
RRLLLRSV [Peptide A30] | 5970
GMGRRLLLRSV [Peptide A27] | 6820
SRWAGMGRRLLLRSV [Peptide A23] | 8270
HPSRWAGMGRRLLLRSV [Peptide A21] | 12000
PSRWAGMGRRLLLRSV [Peptide A22] | 11100
GRRLLLRSV [Peptide A29] | 5370
SHPSRWAGMGRRLLLRSV [Peptide A20] | 12000
B1 | 11800
B2 | 4460
B3 | 4250
B4 | 11200
B5 | 5280
B6 | 7080
B7 | 4900
B8 | 7730
GSHPSRWAGMGRRLLLRSV [Peptide A19] | 11000
MGRRLLLRSV [Peptide A28] | 7140
AGSHPSRWAGMGRRLLLRSV [Peptide A18] | 13400
AAGSHPS (also called AAGSHPS) [Peptide A15] | 1320
AAGSHP (also called AAGSHP) [Peptide A16] | 1570
LLLRSV (also called LLLRSV) [Peptide A32] | 1600
RWAGMGRRLLLRSV [Peptide A24] | 12100
AAGSHPSRW [Peptide A13] | 1520
AAGSHPSRWA [Peptide A12] | 1330
WAGMGRRLLLRSV [Peptide A25] | 12200
RLLLRSV (also called RLLLRSV) [Peptide A31] | 5460
AGMGRRLLLRSV [Peptide A26] | 7620
AAGSHPSR [Peptide A14] | 1350
